Patent publication US20220411514A1, “ANTI-GAL3 ANTIBODIES AND METHODS OF USE FOR INSULIN RESISTANCE” (TrueBinding, Inc., priority 2021, published 2022)

Columns and labels:
[1] = biological target: T1, hGal3 peptide (Homo sapiens, UniProt P17931); test: Gal3 peptide library binding ELISA (Example 2)
T1 construct: a library of 24 amino acid peptides representing portions of Gal3
Procedure: To identify the epitopes to which Gal3 antibodies with and without Gal3-INSR blocking activity bound, a library of 24 amino acid peptides representing portions of Gal3, depicted in FIG. 18, was produced and the ability of each peptide to bind Gal3 antibodies was evaluated by ELISA. At least 2 μg/ml of hGal3 peptide in 50 μl of PBS or 0.1 μg/ml of full-length human Gal3 protein (GenScript) and human Galectin-3 protein (Acro Biosystems, GA3-H5129) were diluted in PBS (Corning, 21-030-CM) to concentrations of at least 2 μg/ml or 0.1 μg/ml, respectively, and added to the wells of a 96-well ELISA plate (Thermo Fisher, 44-2404-21). After incubating the plate at 4° C. overnight, the plate was washed three times with PBST (PBS with 0.05% Tween 20 [VWR, 0777]). The plate was then blocked for an hour with 2% BSA (EMD Millipore, 126609) in PBST at room temperature with gentle rocking. Thereafter, the 2% BSA in PBST was discarded and human Galectin-3 hybridoma supernatants or antibodies were diluted in 2% BSA in PBST to concentrations of at least 0.1 μg/ml and added to the wells. The plate was incubated for an hour at room temperature with gentle rocking and then washed three times with PBST. Afterwards, Goat Anti-Mouse IgG-HRP (Jackson ImmunoResearch, 115-036-1461) or Goat Anti-Rat IgG HRP (Abcam, ab205720) diluted in 2% BSA in PBST (1:4000) were added to the wells. The plate was incubated for 30 minutes to 1 hour at room temperature with gentle rocking and then washed three times with PBST. TMB substrate (Thermo Scientific, 34029) was then added to each well. The reaction was stopped with 1M HCl (JT Baker, 5620-02) and read using a plate reader (Molecular Devices) at absorbance of 450 nm.

[2] = biological target: T2, Human Gal3 peptides (Homo sapiens, UniProt P17931); test: Gal3 peptide binding ELISA (Example 8); conditions: antibody 5 μg/mL
T2 construct: purchased LifeTein custom order
How it was run: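 Plates coated overnight at 4 °C with human Gal3 peptides (at least 100 μg/mL) or Gal3 protein (1 μg/mL) in PBS, then blocked with 2% BSA/PBST. Antibodies as hIgG4 (S228P) at 5 μg/mL, 1 h at room temperature. Detection by HRP anti-human IgG F(ab′)2 and TMB, absorbance at 450 nm.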

[3] = system: NOD/ShiLtJ mice
Source text: To assess the therapeutic potential of anti-GAL3 antibody in Type I diabetes, a mouse model of diabetes type I was used. Briefly, seven-weeks-old female NOD/ShiLtJ mice (Jackson lab (001976)) and control group animals NOR/LtJ (Jackson Lab (002050)) were housed in standard disposable cages with filter tops at room temperature with a 6:00-18:00 day-night cycle. Mice were allowed to rest for a week before initiating glucose monitoring. The antibody treatment was initiated when glucose levels reach 250-400 (mg/dL) for two consecutive days. To establish glucose levels, the blood samples were collected from tail vein of the experimental animals following housing in clean cages with water and no food for 4-6 hours. The collected samples were analyzed by HemoCue Glucose 201 Analyzer and cuvettes (Mercedes Scientific 110706). The animals were dosed twice a week (10 mg/kg) with anti-GAL3 antibodies (mTB001) or PBS control. […] At the end stage, the plasma samples were collected from symptomatic animals. C-peptide levels were determined by Alpco Mouse C-peptide ELISA kit (Alpco, 80-CPTMS-E01).

B1: 20D11.2C6: anti-Gal3 antibody (antibody)
heavy: EVQLQQSGPELVKPGASVKISCKASGYTFTDFYINWVKQSHGKSLEWIGDINPKNGGINYNPKFKIKATLTVDKSSSTSYMDLRGLTSEDSAVYYCTSGYGFPYWGQGTLVTVSAAKTTPPSVYPLAPVCGDTTGSSVTLGCLVKGYFPEPVTLTWNSGSLSSGVHTFPAVLQSDLYTLSSSVTVTSSTWPSQSITCNVAHPASSTKVDKKIEPRGPTIKPCPPCKCPAPNAAGGPSVFIFPPKIKDVLMISLSPIVTCVVVDVSEDDPDVQISWFVNNVEVHTAQTQTHREDYNSTLRVVSALPIQHQDWMSGKEFKCKVNNKDLGAPIERTISKPKGSVRAPQVYVLPPPEEEMTKKQVTLTCMVTDFMPEDIYVEWTNNGKTELNYKNTEPVLDSDGSYFMYSKLRVEKKNWVERNSYSCSVVHEGLHNHHTTKSFSRTPGK
light: DIQMNQSPSSLSASLGDTITITCRASQNIYIWLSWYQQKPGNIPKLLIYKASNLHTGVPSRFSGSGSGTDFTLTISTLQPEDIATYFCLQGQSYPLTFGAGTKLEMKRADVAPTVSIFPPSSEQLTSGGASVVCFLNNFYPKDINVKWKIDGSERQNGVLNSWTDQDSKDSTYSMSSTLTLTKDEYERHNSYTCEATHKTSTSPIVKSFNRNEC
modifications: 20D11.2C6 heavy chain peptide sequence; 20D11.2C6 light chain peptide sequence
notes: anti-Gal3 antibody
- binding to Gal3 peptide 1 (amino acids 1-20, SEQ ID NO: 3) [1]: bound
- binding to Gal3 peptide 7 (amino acids 61-80, SEQ ID NO: 9) [1]: bound
- binding to Gal3 peptide 1 (SEQ ID NO: 3) [2]: bound
- binding to Gal3 peptide 7 (SEQ ID NO: 9) [2]: bound
- binding to Gal3 peptide 8 (SEQ ID NO: 10) [2]: bound

B2: mTB001: anti-Gal3 antibody mTB001 (antibody)
heavy: QIQLVQSGPELKKPGETVKISCKASGYTFTNYGMNWVKQAPGKGLKWMGWINTNTGEPTYVEEFKGRFAFSLETSASTAYLQINNLKNEDTATYFCAPYDNFFAYWGQGTLVTVSAAKTTPPSVYPLAPVCGDTTGSSVTLGCLVKGYFPEPVTLTWNSGSLSSGVHTFPAVLQSDLYTLSSSVTVTSSTWPSQSITCNVAHPASSTKVDKKIEPRGPTIKPCPPCKCPAPNAAGGPSVFIFPPKIKDVLMISLSPIVTCVVVDVSEDDPDVQISWFVNNVEVHTAQTQTHREDYNSTLRVVSALPIQHQDWMSGKEFKCKVNNKDLGAPIERTISKPKGSVRAPQVYVLPPPEEEMTKKQVTLTCMVTDFMPEDIYVEWTNNGKTELNYKNTEPVLDSDGSYFMYSKLRVEKKNWVERNSYSCSVVHEGLHNHHTTKSFSRTPGK
light: DIVITQDELSNPVTSGESVSISCRSSKSLLYKDGKTYLNWFLQRPGQSPQLLIYLMSTHASGVSDRFSGSGSGTDFTLEISRVKAEDVGVYYCQQLVDYPLTFGAGTKLELKRADVAPTVSIFPPSSEQLTSGGASVVCFLNNFYPKDINVKWKIDGSERQNGVLNSWTDQDSKDSTYSMSSTLTLTKDEYERHNSYTCEATHKTSTSPIVKSFNRNEC
modifications: mTB001 heavy chain peptide sequence; mTB001 light chain peptide sequence
- blood glucose levels ([3]; 10 mg/kg twice a week): stabilizing the levels of blood glucose
- survival ([3]; 10 mg/kg twice a week): prolonged survival
- circulating C-peptide levels ([3]; end stage plasma): restoring C-peptide levels

B3: 19B5.2E6: anti-Gal3 antibody (antibody)
heavy: QIQLVQSGPELKKPGETVKISCKASGYTFTTYAMSWVKQAPGKGLKWMGWINTYSGVPTYADDLKGRFAFSLETSASTAYLQINNLKNEDTATYFCARGPYAMDYWGQGTSVTVSSAKTTPPSVYPLAPVCGDTTGSSVTLGCLVKGYFPEPVTLTWNSGSLSSGVHTFPAVLQSDLYTLSSSVTVTSSTWPSQSITCNVAHPASSTKVDKKIEPRGPTIKPCPPCKCPAPNAAGGPSVFIFPPKIKDVLMISLSPIVTCVVVDVSEDDPDVQISWFVNNVEVHTAQTQTHREDYNSTLRVVSALPIQHQDWMSGKEFKCKVNNKDLGAPIERTISKPKGSVRAPQVYVLPPPEEEMTKKQVTLTCMVTDFMPEDIYVEWTNNGKTELNYKNTEPVLDSDGSYFMYSKLRVEKKNWVERNSYSCSVVHEGLHNHHTTKSFSRTPGK
light: DIQMTQTTSSLSASLGDRVTISCSASQGINNYLNWYQQKPDGTVKLLIYYASSLHSGVPSRFSGSGSGTDYSLTISNLEPEDIATYYCQQYSQVPYTFGSGTKLEIKRADVAPTVSIFPPSSEQLTSGGASVVCFLNNFYPKDINVKWKIDGSERQNGVLNSWTDQDSKDSTYSMSSTLTLTKDEYERHNSYTCEATHKTSTSPIVKSFNRNEC
modifications: 19B5.2E6 heavy chain peptide sequence; 19B5.2E6/23H9.2E4 light chain peptide sequence
notes: anti-Gal3 antibody
- binding to Gal3 peptide 1 (amino acids 1-20, SEQ ID NO: 3) [1]: bound
- binding to Gal3 peptide 7 (amino acids 61-80, SEQ ID NO: 9) [1]: bound
- binding to Gal3 peptide 1 (SEQ ID NO: 3) [2]: bound
- binding to Gal3 peptide 7 (SEQ ID NO: 9) [2]: bound

B4: 23H9.2E4: anti-Gal3 antibody (antibody)
heavy: QIQLVQSGPELKKPGETVKISCKASGYTFTTYAMSWVKQAPGKGLKWMGWINTYSGVPTYADDLKGRFAFSLETSASTAYLQINNLKNEDTATYFCARGPYAMDYWGQGTSVTVSSAKTTPPSVYPLAPVCGDTTGSSVTLGCLVKGYFPEPVTLTWNSGSLSSGVHTFPAVLQSDLYTLSSSVTVTSSTWPSQSITCNVAHPASSTKVDKKIEPRGPTIKPCPPCKCPAPNAAGGPSVFIFPPKIKDVLMISLSPIVTCVVVDVSEDDPDVQISWFVNNVEVHTAQTQTHREDYNSTLRVVSALPIQHQDWMSGKEFKCKVNNKDLGAPIERTISKPKGSVRAPQVYVLPPPEEEMTKKQVTLTCMVTDFMPEDIYVEWTNNGKTELNYKNTEPVLDSDGSYFMYSKLRVEKKNWVERNSYSCSVVHEGLHNHHTTKSFSRTPGK
light: DIQMTQTTSSLSASLGDRVTISCSASQGINNYLNWYQQKPDGTVKLLIYYASSLHSGVPSRFSGSGSGTDYSLTISNLEPEDIATYYCQQYSQVPYTFGSGTKLEIKRADVAPTVSIFPPSSEQLTSGGASVVCFLNNFYPKDINVKWKIDGSERQNGVLNSWTDQDSKDSTYSMSSTLTLTKDEYERHNSYTCEATHKTSTSPIVKSFNRNEC
modifications: 23H9.2E4 heavy chain peptide sequence; 19B5.2E6/23H9.2E4 light chain peptide sequence
notes: anti-Gal3 antibody
- binding to Gal3 peptide 1 (amino acids 1-20, SEQ ID NO: 3) [1]: bound
- binding to Gal3 peptide 7 (amino acids 61-80, SEQ ID NO: 9) [1]: bound
- binding to Gal3 peptide 1 (SEQ ID NO: 3) [2]: bound
- binding to Gal3 peptide 6 (SEQ ID NO: 8) [2]: bound
- binding to Gal3 peptide 7 (SEQ ID NO: 9) [2]: bound
- binding to Gal3 peptide 8 (SEQ ID NO: 10) [2]: bound
